Experimental data reported in patent US20040137516A1 (PHAGETECH, published 2004).
Where no end group is shown, it is not given here.

B1: Gal4 activation domain-Twort ORF 168 fusion (pGADT7 construct) (other)
chain: MLFFKEKFYNELSYYRGGHKDLESMFELALEYIEKLEEEDEQQVTDYENAMEEELRDAVDVIESQLEIIKDIVR
notes: Second orientation of the two-hybrid test; also called Twort ORF 168 polypeptide; not shown: limits and vector-encoded tags not st
B2: Gal4 DNA binding domain-Lamin C control fusion (pGBKT7LaminC) (other)
chain: MKLLSSIEQACDICRLKKLKCSKEKPKCAKCLKNNWECRYSPKTKRSPLTRAHLTEVESRLERLEQLFLLIFPREDLDMILKMDSLQDIKALLTGLFVQDNVNKDAVTDRLASVETDMPLTLRQHRISATSSSEESSNKGQRQLTVSSEEVVSREVSGIKAAYEAELGDARKTLDSVAKERARLQLELSKVREEFKELKARNTKKEGDLIAAQARLKDLEALLNSKEAALSTALSEKRTLEGELHDLRGQVAKLEAALGEAKKQLQDEMLRRVDAENRLQTMKEELDFQKNIYSEELRETKRRHETRLVEID
notes: also called pGBKLaminC
B3: GST/G1 ORF 240 fusion protein (other)
chain: MVIPSIKAQNKFKNELEYYKQGHISESKMLELAFDYIQELEQNNEYVTNLLEEERYGE
modifications: also: fusion protein with GST moiety, not in chain
notes: also called GST ORF240; not shown: glutathione-S-transferase (GST) moiety encoded by expression vector pGEX 4T-1
B4: GST/44AHJD ORF 25 fusion protein (other)
chain: MERKYKTVLLYCDEIKGHFPHQISMFEDLYDAKVVYSYYEYNLFTKKYAYIIEYIKEI
modifications: also: fusion protein with GST moiety, not in chain
notes: also called GST/ORF 25; GST/ORF25; not shown: glutathione-S-transferase (GST) moiety encoded by expression vector pGEX 4T-1 (Pharmacia)
B5: purified bacteriophage 44AHJD ORF 25 protein (other)
chain: B4 chain
notes: Purified recombinant polypeptide injected as analyte in SPR; also called 44ADJH ORF 25

Assays:
[1] = molecular target: B2; experiment: yeast two-hybrid, growth on THAL minus medium
[2] = molecular target: T1, Gal4 activation domain-STAAU_R2 fusion (pGADSTAAU_R2) (yeast; Staphylococcus aureus, UniProt P0A022 1-377); experiment: yeast two-hybrid, growth on THAL minus medium
T1 construct: Expressed in yeast AH109 for two-hybrid analysis; not shown: limits and vector-encoded tags not st
T1 sequence: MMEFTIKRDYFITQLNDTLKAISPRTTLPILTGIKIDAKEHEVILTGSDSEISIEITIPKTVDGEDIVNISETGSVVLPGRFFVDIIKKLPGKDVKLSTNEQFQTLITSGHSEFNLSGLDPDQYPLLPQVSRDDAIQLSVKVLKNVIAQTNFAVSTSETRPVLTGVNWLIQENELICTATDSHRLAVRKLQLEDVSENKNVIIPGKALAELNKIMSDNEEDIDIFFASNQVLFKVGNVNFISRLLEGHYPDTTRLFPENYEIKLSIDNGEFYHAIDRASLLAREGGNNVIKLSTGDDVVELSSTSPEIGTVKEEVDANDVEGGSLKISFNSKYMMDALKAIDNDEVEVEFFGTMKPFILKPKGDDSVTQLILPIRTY

[3] = molecular target: T2, S. aureus STAAU_R2 (DNA-directed DNA polymerase III beta subunit, DnaN), native protein in S. aureus extract (Staphylococcus aureus, UniProt P0A022 1-377); experiment: affinity chromatography of S. aureus extract on GST ORF240-Affigel 10; SDS-PAGE silver stain
T2 construct: also called PT48; PT 48
T2 sequence: T1 sequence

[4] = molecular target: T2, S. aureus STAAU_R2 (DNA-directed DNA …); experiment: affinity chromatography of S. aureus extract on GST/ORF25-Affigel 10; 1% SDS eluate, SDS-PAGE silver stain, MALDI-ToF identification
[5] = molecular target: T3, Glutathione-S-transferase (GST)-tagged STAAU_R2 (Staphylococcus aureus, UniProt P0A022 1-377); experiment: SPR (Biacore 2000); GST-tagged STAAU_R2 captured by anti-GST antibody on CM5 chip, ORF 25 as analyte
T3 construct: Purified recombinant polypeptide captured by an anti-GST antibody on a CM5 chip; not shown: glutathione-S-transferase (GST) tag
T3 sequence: T1 sequence

Binder: B1
- binding result [1]: no binding

Binder: B2
- binding result [2]: no binding

Binder: B3
- binding result [3]: binds

Binder: B4
- binding result [4]: binds

Binder: B5
- binding result [5]: binds
